Experiment: soluble on expression in E. coli; label from the status in PepcDB or PDB records

Row | Sequence | soluble on expression in E. coli
1 | MPEYKAPLRDMRFLIDEVFDFHGRYQALGASDATPDMVAAILDEGSKFCEQVLAPLNRSGDEEGCHFDNGVVTTPKGFKEAYAQYVEGGWNGVASDPAYGGQGLPHSLGLLLSEMIGASNVSWGMYPGLTRGAMSAIHAHGSQAQKDLYLARMTAGTWTGTMCLTEPHCGTDLGIIKTRAVPNADGSHAISGTKIFISAGEHDLSENIVHLVLAKLPDAPAGTKGISLFIVPKFLPDAEGNVGARNAVSCGSIEHKMGIKASATCVMNFDGATGYLIGEPNKGLHCMFTMMNHARLGTGMQGLCLGETSYQGAVRYARERLQMRSLTGPKAPDKPADPIIVHPDVRRMLLTMKAFNEGNRALAYFTAQLLDTEHLSQDAAERERAADLLAFLTPICKAFMTETGQEVTNLGMQVYGGHGYIREWGMEQLVRDCRIAQIYEGTNGIQALDLLGRKVLGSQGKLLRGFTKLVHQLCQAQAEHPQLKGQVAQLAALNAQWGELTQQVGLAAMKNADEVGAASVDYLMFSGYVTLAYFWLRIALVAREKLDAGSGEAAFYEAKLATADFYFSR | not soluble
2 | MRLPIFLLALSSASIVFSLDPVPEEYANVPKEFFEKFQAAIKSGDPVAVVDLFAPDDMLPVSGMIEAAQGIIKSFESYPTGIIERVRYEYGVIQINVRYYPNTPLLSKKTTIFKIKYENKWKGWTMVHFSDWM | not soluble
3 | MGSDKIHHHHHHMALLEVHNLNKRFTDHISLFHKQRFYAVKNISFNLNEGETIAIIGENGAGKSTLAKMIAGITKPTSGDMFFRYKKLTYGDYQFRTKHIRMMFQDPNHTFNPNHNIGQILDAPLRLATDMNEQERNECIFNTLKLVGMYPEYALIPIKETSTSQKQRIALARALILSPEIIIADDTLSTLDFSVKTQLTNLMLNLQEKLGIAFIYVGQHLGIIKHIADKLIIMHQGEAIEYGDTKEVLLNPQNPITARLIESHFGKMLTEDAWAK | not soluble
4 | MLDLQISKKTVDPLKRPPHSVEAEQSIIGGLMLDNQVWDKVSNKLCETDFYRTEHRILFRAISALAKKDQPFDVVTLLDALKTRNELDDAGGEAYLFELANNTPSVANVTAYADIVREKSVQRQLIAVATEIADSAYNPAGREVPELLDMAETKVFAIGEQTASDGGPENIKSILVRAVEKIDALYHNGDAITGLATGLSDLDEMTSGLQPSDLIIVAGRPSMGKTTLVMNMAEHAAIKAGKPVLVFSMEMPADSLAMRMMSSLGRIDQHRIRTGKLDDNDWPRVTSAVHMLSEAPLFIDDTPALSPGEMRARARRLAKEHGSLGLIVVDYLQLMKVPGFNADNRTAEISEISRSLKSLAKELQVPVIALSQLNRSLEQRADKRPVMSDLRESGAIEQDADLICFIYRDEVYNEDSPDKGTAEIIVAKQRNGPIGKVRVAFLGKYTRFEDLAFNGYQGVE | not soluble
5 | MSKVNEITRESWILSTFPEWGTWLNEEIEQTVVEPNTFSMWWLGCTGIWLKSAGNTNLSIDFWCGTGKKTQKNRLMNTQHQMMRMGGVEALQPNLRTSIFPLDPFAIKEIDAVLASHDHADHIDVNVAAAVLQNCGEHVKFIGPQACVDLWLGWGVPQERCIVAKVGDVLEIGDVKIRVLDSFDRTALVTLPKGVSSYDKAILDGMDERAVNYLIETSGGSVYHSGDSHYSNYYAKHGNDYQIDVALLSYGENPRGVTDKMTSSDVLRAAESLDCQVVVPFHHDIWANFQNDPREIEVLWNMKKDRLQYQFAPFFWQVGGKYTYPTDKGRMHYQHFRGFQDIFKNEPELPYKAFL | soluble
6 | MSLYVSKLFTSQQWRELKLISYVTENADAIGVKDKELSKALNISMLTLQTCLTNMQFMKEVGGITYKNGYITIWYHQHCGLQEVYQKALRHSQSFKLLETLFFRDFNSLEELAEELFVSLSTLKRLIKKTNAYLMHTFGITILTSPVQVSGDEHQIRLFYLKYFSEAYKISEWPFGEILNLKNCERLLSLMIKEVDVRVNFTLFQHLKILSSVNLIRYYKGHSAVYDNKKTSQRFSQLIQSSLEFQDLSRLFHLKFGLYLDETTIAEMFSNHVNDQLEIGYAFDSIKQDSPTGCRKVTNWVHLLDELEIRLNLSVTNKYEVAVILHNTTVLKEEDITANYLFFDYKKSYLNFYKQEHPHLYKAFVAGVEKLMRSEKEPISTELTNQLIYAFFITWENSFLKVNQKDEKIRLLVIERSFNSVGNFLKKYVGEFFSITNFNELDALTIDLEEIEKQYDVIVTDVMVGKSEELEIFFFHKMIPEAIIDKLNAFLTSALQQEGHHHHHH | soluble
7 | SDLDYGGVPLWINRFLGEPSVLTLKDRIDPGWYRAVNTQSCPLECDCPIQWPTAIYCDHRGLNQLPSGLPFRLQYLFLQGNNITSLGSRAFDNTTYLRWLILDHNELLSEQLDNVLFSSLTRLVNLFINHNNLTKVPAGLPSGLKQLRLAYNHIEKISEGDFQNLDSLTLILLQGNRLKTIEEGDFKGLGALNLLDLSHNFLDTFPKHLPPSVQQLYLSNNSLTGLSENSLHAFSGLRYLRLGHNKLRNERLDPGAFNLTSLVELDLSYNRLTEIPSVPITLQYLYLEVNHIQEFNVSSFCRTVGPTSYSRMKILRLDGNKLEYHKLPPDWVFCLRVLHNIYI | soluble
8 | MSLSKPLFIFEMANNHMGNVEHGVALIRAIRESCQGFDFDFGFKLQYRNLDTFIHSSFKGRDDVKYVKRFEETRLQPEQMQKLVAEMKANGFKAICTPFDEESVDLIEAHGIEIIKIASCSFTDWPLLERIARSDKPVVASTAGARREDIDKVVSFMLHRGKDLTIMHCVAEYPTPDDHLHLARIKTLRQQYAGVRIGYSTHEDPDLMEPIMLAVAQGATVFEKHVGLPTDQYGINNYSANPEQVRRWLAAAARALAMLGDGEDDAVSETEQASLRSLRRGVFATRPVAAGEALTADNVSFAFPPVEGQLTANEWSKYVRYTAKTPIAADAPVMAADLEPVNEGHHHHHH | soluble
9 | MDAYRYWSREAIRADIDTRRHCLHIAIENFENDANIGTVVRTANAFAVDTVHIVGRKRWNRRGAMVTDRYQHLMHHPTTADVVAWAKQQGLTIVAIDNTPGCVPLETAELPERCLLLFGQEGPGVTQEAQDNARMTCSIAQFGSTRSINAGVAAGIAMHAWIRQHADLDNAW | not soluble
10 | SATSTTIAKHIGNSNPLIDHHLGADPVALTYNGRVYIYMSSDDYEYNSNGTIKDNSFANLNRVFVISSADMVNWTDHGAIPVAGANGANGGRGIAKWAGASWAPSIAVKKINGKDKFFLYFANSGGGIGVLTADSPIGPWTDPIGKPLVTPSTPGMSGVVWLFDPAVFVDDDGTGYLYAGGGVPGVSNPTQGQWANPKTARVIKLGPDMTSVVGSASTIDAPFMFEDSGLHKYNGTYYYSYCINFGGTHPADKPPGEIGYMTSSSPMGPFTYRGHFLKNPGAFFGGGGNNHHAVFNFKNEWYVVYHAQTVSSALFGAGKGYRSPHINKLVHNADGSIQEVAANYAGVTQISNLNPYNRVEAETFAWNGRILTEKSTAPGGPVNNQHVTSIQNGDWIAVGNADFGAGGARSFKANVASTLGGKIEVRLDSADGKLVGTLNVPSTGGAQTWREIETAVSGATGVHKVFFVFTGTGTGNLFNFDYWQFTQR | soluble
11 | MARLARFWDSLENENLFDIVPQPPKSTVTRFHQQWLSSLANARDDELQTILYAKPLLPTPESIVQLPDEEYYGAKKISVGYR | not soluble
12 | MGSSHHHHHHGKTIFVIVPTNEEQVAFLEALAKQDELNFDWQNPPTEPGQPVVILIPSDMVEWFLEMLKAKGIPFTVYVEEGGSENLYFQGGGGGGFVPNWYQHPDPALKYADDMEVYDYYQQYEAAKKAAREASTSSKKTAATSPALPRAKPHVTIA | soluble
13 | MWKISKENCEDLGFAIVCMFYDAINLSEFKLWLDIVVRDIPIDTIPLYIFDLIDFDKSIGEIYDVIGVVNYGYISNDQKNALTGIAFLRGIDVYDPPISKEKALKALEKYPEIYQRFQHFFPFVELPLF | not soluble
14 | MDFITDMSKNQRLELQNRLAQYETSLMVMSHNGDVPVITGFNVMRVTTMLDALKVELPAVAVLGDDAQDLAYVFGARPLAVGVNIIRVVDVPGQQPSALVDAELGALHEVSMVRVLNDIADEQLVKANM | soluble
15 | MAGTSFLSDLLSGVTERGRALLFSGSKARDRVVDTDIETLCEMLLSSRGEASGMAIAAEILDRWSRFNAAEAVQFLHMLSDRFGAEAAALDKAIDAYRTDKSPMAVIALHNAAEPRRQELLRRLNLAPNGTQKLVRMRERLLETKEDRADLGAVDTDFAHLFSSWFNRGFLTLQPIDWTTPAHILEKIIKYEAVHEIAGWEELRRRLAPADRRCFAFFHPRLRDDPLVFVEVALTRSIPSAIADVLDESRDHIGADTATTAVFYSISNCQDGLRGISFGNFLIKQVVEDLRRDLPGLKEFVTLSPVPGFARWISKIRDPKSGFPLSPEDRNTLVLLDDPTWPEDKARADAVERILLPLAARYFITERTPDNRPVDPVARFHLGNGARLERLNFLGDRSVKAMRQAHGLMVNYLYKLEDIETNHEALAQRGEVAASPAVKALQGKIEPILPEKPKLEHHHHHH | soluble
16 | MAHHHHHHMSKDGNCGGCSAPWGKMPQSPMTPLSDARDSPTAPLCSHSAFSKVNKESSEEESFVVGKYQTSMCPICLESFTHENPAVVVGCGHSFHLQCVEDWRQRSPICPVCMIVLRGDGLPMHTGRQSQRPSEVSPSQRKGRATTSTMTSASSGTTFMVTAGGVHGRVLDTKPPSVVNASAGVEGSGSVVDVGNVSFLSRVRRCMKFCCTCEDDL | not soluble
17 | MGKLKWFSGGKERSNQAENIITDLLDDLKTDLDNESLKKVLENYLEELKQKSASVPLILSRMNLDISKAIRNDGVTLSDYQSKKLKELTSISNIRYGY | soluble
18 | MKYQKLENQEANWKWIYLIRKHREGENITRYEERSLQEAKAQELLESQNYPEKIEEWIKNHLSPALPIKLDQAIRARRKRFFNGEKQHTKKKSIDLEYAVWLRLSKYSRKMKMTLSETITYMIDERESKAQFENQMAAMKTSLKNLLK | not soluble
19 | MSVDTKIIGSFLQLTNYFAENYPAPCDLISSLTDLWFKQGGMIARMMSCDIQEFKSSDVFYEVLYRKIRVGNSLLADTLDPKMAAEGNLFEICKFYSLYLEHLRKDQSELLTIVLERLASQSDFNSTVILDMFTFFDKLYSEGNVGDWWDFLLGSEDASMVFKTPKKTNRPSNAFSTPTATAKRLPMYGSSTCRSPIAEVVDSPTMKYMRSDRELKTAKKKLVDMEHMVDELESENRNLTEKGRELKLIIDSLKSDVTNKRDTAKSSQQREQELSNILEEKEKESAQLLQQLEESRAALRDEQRHLEHQEAENGKIVEQLKTVSELNEKLTMQVKDLQDASENELASFRQKEKELIDELRMATNENVDLEELLKGVTNGKAGLQFENNCLVGKLEELSFVSDRNKQDADNARAQLEEEREKHRLATEKLHQENIDYMKTSDSRIEMILEESKTRKMMDESTIERLRLDLDNEKSYKKNLEDLLNDLNQRALNSEMANHLQKEGIQSVETYLQMAKKRIEHLELELSATNATIEFQSQQLDRAGNMLITEQEIRNQTSVQYKERTSALENQLSQKDAEIENLKRDLQQLVTKHESELKEQHEQLNVHHQSQQKLHSEAEKLRREHEALGKKNCFLGERCKIFVKDSRSGVMKRSTSSDSLAEFLSKGNDNETLEEMMRLIAQTPRKSVAFSFDLDEDETLKGTPIGFRTNLNETRESIASDEFFDRFPSTFPTRAAPRESVVSIGEPKNQFSPLGTSKDRVKTLTSRNEKVKPHLKSSYATEMGNVTSPSADEENVRKGKSKSIFAKLKGPRRDSFFFGKKKQAE | not soluble
20 | MSLQRGAGQYFAGKRCFVTGAASGIGRATALRLAAQGAELYLTDRDRDGLAQTVCDARALGAQVPEHRVLDVSDYQDVAAFAADIHARHPSMDVVLNIAGVSAWGTVDQLTHDQWSRMVAINLMGPIHVIETLVPPMVAAGRGGHLVNVSSAAGLVGLPWHAAYSASKYGLRGLSEVLRFDLARHGIGVSVVVPGAVKTPLVNTVEIAGVDRDDPRVNRWVERFSGHAVTPEKAADKILAGVTRNRYLVYTSADIRALYAFKRYAWWPYTLVMRRVNVFFTRALRPGEGHHHHHH | soluble

— the DeepSol protein solubility set
